This passage reports 6 hr viability of C5-deficient or C3-/- T cells in serum-free medium results from US20110135656A1.

The assay addresses C5a receptor (mouse) (UniProt P30993). As to the kind of experiment: cell-based or functional assay.

Sequence of C5a receptor (mouse) (P30993 whole entry): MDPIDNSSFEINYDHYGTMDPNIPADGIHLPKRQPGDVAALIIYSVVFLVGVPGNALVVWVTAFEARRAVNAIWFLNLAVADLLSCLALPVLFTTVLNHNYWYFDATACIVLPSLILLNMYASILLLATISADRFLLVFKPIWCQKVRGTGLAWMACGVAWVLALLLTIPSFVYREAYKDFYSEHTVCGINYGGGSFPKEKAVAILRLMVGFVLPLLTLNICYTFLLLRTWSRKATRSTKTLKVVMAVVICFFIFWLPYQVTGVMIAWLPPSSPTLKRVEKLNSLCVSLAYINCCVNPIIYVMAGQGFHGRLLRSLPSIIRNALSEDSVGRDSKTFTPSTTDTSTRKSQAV

The substance “Murine C5a (from UniProt P06684 679-755) (ligand)” had a 6 hr viability of C5-deficient or C3-/- T cells in serum-free medium of 25%.
